As a reminder, the Kd is the equilibrium constant for the complex coming apart.

B1: AB-3467, expressed as human IgG1 (antibody, V domains shown)
VH: QVQLQESGPGLVKPSETLSLTCTVSGGSISSYHWNWIRQPPGKGLEWIGYIYYSGNTNYNPSLKSRVSISTDTSKNQFSLKLSSVTAADTAVYYCVREMRRGYSGYDYWDLYAFDIWGQGTMVTVSS
VL: DIQLTQSPSFLSASVGDRVTITCRASQGISSYLAWYQQKPGKAPNLLIYAASTLQSGVPSRFSGSGSGTEFTLTISSLQPEDFATYYCQQLNSYPHTFGQGTKLEIK
B2: AB-3623, expressed as human IgG1 (antibody, V domains shown)
VH: QVQLQESGPGLVKPSETLSLTCAVSGGSISSYYWNWIRQPPGTGLEWIGYIYYSGRTNYNPSLKSRVTISVDTSKNQFSLKLSSVTAADTAVYYCAREMRRGYSGYDDWDLYAFDIWGQGTMVTVSS
VL: DIQLTQSPSFLSTSIGDRVTITCRASQGISSYLAWYQQKPGKAPNLLIYAASTLQSGVPSRFSGSGSGTEFTLTISSLQPEDFATYYCQQLNSYPHTFGQGTKLEIK
B3: AB-4873, expressed as human IgG1 (antibody, V domains shown)
VH: QVQLVQSGAEVKKPGASVKVSCKASGYTFTSYYMHWVRQAPGQGLEWMGIINPSAGTTNYAQKFQGRVTMTRDTSTSTVYMELSSLRPEDTAVYYCARENYYGWGSYPFDYWGQGTLVTVSS
VL: DVQLTQSPSFLSASVGDRVTITCRASQGISSYLAWYQQKPGKAPKLLIYAASTLQSGVPSRFSGTGSGTEFTLTISSLQPEDFATYYCQQLNSYPYTFGQGTKLEIK
B4: AB-4689, expressed as human IgG1 (antibody, V domains shown)
VH: QVQLVQSGAEVKKPGASVKVSCKASGYTFSSYGISWVRQAPGQGLEWMGWISAYNGNTYYAQKLQGRVTMTTDTSTSTAYMELRSLRSDDTAVYYCAREFGRLIVHFDYWGQGTLVTVSS
VL: EIVLTQSPDFQSVTPKEKVTITCRASQSIGSSLSWYQQKPDQSPKLLIKCASQSISGVPSRFSGSGSGTDFTLTINSLEAEDAAAYYCHQSSSLPYTFGQGTKLEIK
B5: AB-2445, expressed as human IgG1 (antibody, V domains shown)
VH: QVQLVESGGGVVQPGRSLRLSCAASGFTFSSYGMHWVRQAPGKGLEWVAVIWYDGSNKYYADSVKGRFTISRDNSKNTLYLQMNSLRAEDTAVYYCARDDYYGSGSYDYYGMDVWGQGTTVTVSS
VL: DIQMTQSPSSLSASVGDRITITCRASQGIRNDLDWYQQKPGKAPKRLIYAASSLQSGVPSRFSGSGSGTEFTLTISSLQPEDFATYYCLQHNSYPPYTFGQGTKLEIK
B6: AB-2126, expressed as human IgG1 (antibody, V domains shown)
VH: QVQLVESGGGVVQPGRSLRLSCAASGFTFSSYGIHWVRQAPGKGLEWVAVIWYDGSNKYYADSVKGRFTISRDNSKNTLYLQMNSLRAEDTAVYYCARETLDGMDVWGQGTTVTVSS
VL: NIQMTQSPSAMSASVGDRVTITCRARQGISNYLAWFQQKPGKVPKHLIYAASSLLSGVPSRFSGSGSGTEFTLTIRSLQPEDFATYYCLQHNSYPYTFGQGTKLEIK

The first test concerns the target T1, SARS-CoV-2 receptor-binding domain (SARS-CoV-2, UniProt P0DTC2). The experiment in a line: BLI. In general terms: In BLI a coated tip is dipped into the sample, and binding shifts an interference pattern.
As to B1, the Kd was found to be 4.1 nM.
Consider B2, for which the Kd came to 2.3 nM.
The same measure, in the same setting: the value for B3 was 4.1 nM; that for B4 was 0.24 nM.

The target in the next test is T1, SARS-CoV-2 receptor-binding domain. The experiment in a line: cell-based or functional assay.
With B1, the “neutralization of live CoV2 virus, Vero E6 cells (blocks RBD-ACE2)” value is 0.179 µg/mL.
The same measure, in the same setting: the value for B5 was 0.37 µg/mL; that for B6 was 0.106 µg/mL.
